In PMC5839545:
Values belong to the substance of their own block, whether it stands above or below them.

Experiments:
[1] = biological target: mCherry-(s)-CENP-K (human) (UniProt Q9BS16); test: dual color fluorescence cross-correlation spectroscopy (DC-FCCS); EGFP and mCherry fusion proteins co-expressed in living interphase HEp-2 or U2OS cells; spots in the nucleoplasm free of kinetochores, focal volume bleached before; 37°C; 488 and 561 nm; corrected values are the measured ones times about two
mCherry-(s)-CENP-K (human), sequence (Q9BS16 whole entry, the tested form may be a part): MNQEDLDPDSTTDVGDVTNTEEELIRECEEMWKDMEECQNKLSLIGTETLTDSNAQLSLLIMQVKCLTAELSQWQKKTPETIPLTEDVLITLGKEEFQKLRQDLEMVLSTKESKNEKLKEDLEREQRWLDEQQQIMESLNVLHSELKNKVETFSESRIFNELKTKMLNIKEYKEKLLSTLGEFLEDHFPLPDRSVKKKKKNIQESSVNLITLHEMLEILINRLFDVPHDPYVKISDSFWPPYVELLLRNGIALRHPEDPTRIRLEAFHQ

[2] = biological target: mCherry-(s)-CENP-I (human) (UniProt Q92674); test: as above
mCherry-(s)-CENP-I (human), sequence (Q92674 whole entry): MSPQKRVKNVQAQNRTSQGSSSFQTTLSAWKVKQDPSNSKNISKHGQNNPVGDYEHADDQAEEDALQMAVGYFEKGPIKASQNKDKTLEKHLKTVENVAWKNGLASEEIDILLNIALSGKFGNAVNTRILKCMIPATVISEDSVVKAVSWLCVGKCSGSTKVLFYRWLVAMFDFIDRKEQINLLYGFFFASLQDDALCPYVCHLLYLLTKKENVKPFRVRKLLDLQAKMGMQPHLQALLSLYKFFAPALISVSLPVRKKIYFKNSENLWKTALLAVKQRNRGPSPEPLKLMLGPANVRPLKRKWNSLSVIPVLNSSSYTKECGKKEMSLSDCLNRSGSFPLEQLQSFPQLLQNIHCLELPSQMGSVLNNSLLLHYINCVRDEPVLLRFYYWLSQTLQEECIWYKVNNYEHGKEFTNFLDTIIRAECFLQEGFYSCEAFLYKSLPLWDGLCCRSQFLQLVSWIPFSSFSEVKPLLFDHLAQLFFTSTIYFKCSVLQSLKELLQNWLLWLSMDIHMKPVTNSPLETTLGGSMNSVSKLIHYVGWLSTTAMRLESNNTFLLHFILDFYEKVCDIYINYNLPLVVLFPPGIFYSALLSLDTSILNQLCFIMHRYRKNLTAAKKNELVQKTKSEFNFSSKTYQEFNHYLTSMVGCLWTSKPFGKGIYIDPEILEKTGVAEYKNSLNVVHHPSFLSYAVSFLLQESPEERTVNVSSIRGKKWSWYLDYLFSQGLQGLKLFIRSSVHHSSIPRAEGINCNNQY

[3] = biological target: mCherry-(s)-CENP-N (human) (UniProt Q96H22); test: as above
mCherry-(s)-CENP-N (human), sequence (Q96H22 whole entry): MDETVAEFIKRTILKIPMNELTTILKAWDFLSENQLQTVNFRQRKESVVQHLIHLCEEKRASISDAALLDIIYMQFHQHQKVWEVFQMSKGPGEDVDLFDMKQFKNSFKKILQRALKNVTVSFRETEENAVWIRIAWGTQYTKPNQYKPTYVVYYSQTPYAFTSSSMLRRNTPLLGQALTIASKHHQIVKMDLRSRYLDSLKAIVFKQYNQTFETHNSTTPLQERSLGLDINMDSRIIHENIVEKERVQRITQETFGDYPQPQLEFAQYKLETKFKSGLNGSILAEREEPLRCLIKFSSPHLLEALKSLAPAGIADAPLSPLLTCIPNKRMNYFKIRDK

[4] = biological target: CENP-I-(s)-mCherry (human) (UniProt Q92674); test: as above
CENP-I-(s)-mCherry (human), sequence (Q92674 whole entry): as the sequence (Q92674 whole entry) above

[5] = biological target: Spc24/Spc25 137-197+129-224 (Homo sapiens) (UniProt Q8NBT2); settings: cited from earlier work
Spc24/Spc25 137-197+129-224 (Homo sapiens), sequence (Q8NBT2 whole entry, chain 1 of 2): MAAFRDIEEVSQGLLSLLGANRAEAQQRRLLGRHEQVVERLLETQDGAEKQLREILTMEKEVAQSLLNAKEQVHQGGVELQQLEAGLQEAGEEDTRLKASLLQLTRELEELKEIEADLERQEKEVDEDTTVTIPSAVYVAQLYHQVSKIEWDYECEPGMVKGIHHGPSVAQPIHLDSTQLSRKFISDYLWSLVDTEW
Spc24/Spc25 137-197+129-224 (Homo sapiens), sequence (Q9HBM1 whole entry, chain 2 of 2, further chain): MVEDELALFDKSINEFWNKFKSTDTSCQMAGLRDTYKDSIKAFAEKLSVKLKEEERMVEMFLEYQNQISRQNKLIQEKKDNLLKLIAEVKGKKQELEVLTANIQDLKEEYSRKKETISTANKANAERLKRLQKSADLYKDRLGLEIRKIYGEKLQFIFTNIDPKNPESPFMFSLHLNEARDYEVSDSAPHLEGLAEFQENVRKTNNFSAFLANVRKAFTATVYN

EGFP-(l)-CENP-M, sequence (Q9NSP4 whole entry): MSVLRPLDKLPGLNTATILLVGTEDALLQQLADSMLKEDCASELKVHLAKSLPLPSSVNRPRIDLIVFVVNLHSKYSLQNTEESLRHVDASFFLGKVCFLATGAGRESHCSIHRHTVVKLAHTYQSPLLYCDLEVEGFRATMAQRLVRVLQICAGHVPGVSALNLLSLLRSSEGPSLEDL
CENP-T 76-106, sequence (Q96BT3 76-106): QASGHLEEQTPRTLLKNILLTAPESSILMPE
EGFP-(l)-CENP-L, sequence (Q8N0S6 whole entry): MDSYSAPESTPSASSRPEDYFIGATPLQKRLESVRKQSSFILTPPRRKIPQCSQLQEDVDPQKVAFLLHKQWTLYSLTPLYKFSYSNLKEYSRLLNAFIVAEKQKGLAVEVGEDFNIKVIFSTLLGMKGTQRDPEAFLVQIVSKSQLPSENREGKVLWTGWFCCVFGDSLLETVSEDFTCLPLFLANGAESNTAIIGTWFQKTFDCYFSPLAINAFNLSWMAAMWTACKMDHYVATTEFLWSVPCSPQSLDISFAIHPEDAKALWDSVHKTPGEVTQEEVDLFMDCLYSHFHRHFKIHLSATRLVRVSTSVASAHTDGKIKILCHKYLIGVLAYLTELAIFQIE

co-migration in one cell (%) [1]: 49%
cross-correlation, corrected (%) [1]: 56 to 92%
cross-correlation, measured (%) [1]: 37%
cross-correlation, measured (%) [2]: 24%
Substance: EGFP-(l)-CENP-M (from UniProt Q9NSP4 1-180) (natural protein)

cross-correlation, measured (%) [2]: 20%
Substance: EGFP-(s)-CENP-K (from UniProt Q9BS16 1-269) (natural protein)

cross-correlation, measured (%) [3]: 23%
Substance: EGFP-(l)-CENP-L (from UniProt Q8N0S6 1-344) (natural protein; other documents disagree on this pair)

cross-correlation, measured (%) [4]: 22%
Substance: EGFP-(s)-CENP-H (from UniProt Q9H3R5 1-247) (natural protein)

cross-correlation, measured (%) [3]: 26%
Substance: CENP-K-(s)-EGFP (from UniProt Q9BS16 1-269) (natural protein)

Substance: CENP-T 76-106 (from UniProt Q96BT3)
Kd [5]: 645 nM
